The DeepSol protein solubility set

Experiment: soluble on expression in E. coli; label from the status in PepcDB or PDB records

Sequence | soluble on expression in E. coli
MNINRFVLAAPGSGSGKTTVAALLCLALRARGLSVQPFKLGPDYLDPTHLTRAAGRETRNLDSFLLAPERLQTLFARAAAQAEVCVIEGVMGLYDGRDPGSDEHSTAALARLLGARVVLVIDAGGMARTVAAVAAGLRDFGEGVNVAGVILNRVGSVRHAELCAEALTQVGLACLGFLLQDDALRLPSRHLGLLSAQQASWDEAAALAAARYLDLDALLNVTRAPDLSSSSSMSPPPSTRIAYAFDSAFHFYYPDALDELRSCGAELVPFSPLEDAGVPEDVGGLLLGGGYPEAHAAELAANERMRRSVRAFAASGRPVVGECGGLMYLSETLEDENGVTHEMCGVVPYRTRMARRLSLGYRDALSLADSPLLPAGTAIRGHEFHFSTLTHEPTHPAYRWRTHDGQEVAEGYARGNVLASYLHLHYGGFPAVAARLVERCQLEHHHHHH | not soluble
DVPLTPSQFAKAKSENFDKKVILSNLNKPHALLWGPDNQIWLTERATGKILRVNPESGSVKTVFQVPEIVNDADGQNGLLGFAFHPDFKNNPYIYISGTFKNPKSTDKELPNQTIIRRYTYNKSTDTLEKPVDLLAGLPSSKDHQSGRLVIGPDQKIYYTIGDQGRNQLAYLFLPNQAQHTPTQQELNGKDYHTYMGKVLRLNLDGSIPKDNPSFNGVVSHIYTLGHRNPQGLAFTPNGKLLQSEQGPNSDDEINLIVKGGNYGWPNVAGYKDDSGYAYANYSAAANKSIKDLAQNGVKVAAGVPVTKESEWTGKNFVPPLKTLYTVQDTYNYNDPTCGEMTYICWPTVAPSSAYVYKGGKKAITGWENTLLVPSLKRGVIFRIKLDPTYSTTYDDAVPMFKSNNRYRDVIASPDGNVLYVLTDTAGNVQKDDGSVTNTLENPGSLIKFTYKAK | soluble
MAHHHHHHMMCLKLNLLDHVFANPFMNAAGVLCSTEEDLRCMTASSSGALVSKSCTSAPRDGNPEPRYMAFPLGSINSMGLPNLGFDFYLKYASDLHDYSKKPLFLSISGLSVEENVAMVRRLAPVAQEKGVLLELNLSCPNVPGKPQVAYDFEAMRTYLQQVSLAYGLPFGVKMPPYFDIAHFDTAAAVLNEFPLVKFVTCVNSVGNGLVIDAESESVVIKPKQGFGGLGGKYILPTALANVNAFYRRCPDKLVFGCGGVYSGEDAFLHILAGASMVQVGTALQEEGPGIFTRLEDELLEIMARKGYRTLEEFRGRVKTIE | not soluble
MALLREYKEIAYQWGIWKTEESPEELLALLPDPERYEQQLTLFSSPHRKLEWLSVRVLLYQLLGEEKTIEYAPSGKPHLADSSYFISISHTRGYVAVILSPVSEVGIDIEQYGQRVHKVAHKYMRPDELISEYQGEDTWSLLLHWSAKEVMFKCMDTSEVDFREHLRIMPFQVCEHGEFPAEEYRTEHKKKFMIRYLLHPDFVMTWQVTSAYSVNECDIMKKMQ | not soluble
GSTVPYTITVNGTSQNILSNLTFNKNQNISYKDLEGKVKSVLESNRGITDVDLRLSKQAKYTVNFKNGTKKVIDLKSGIYTANLINSSDIKSININID | soluble
MAHHHHHHMYFLGEERHFRVLSLSFGVRGLQGSVTSEAAKIQTQMALQQTAYSACSRKVHCVSKHYLDDPFVHFFSRDMTIVNSPLMNRGTWLRTVAIERSVLSFARNWSADGPLQVISFGSGVDTLYFRLKKDHSEVNIVRYIELDFPDLVAEKQRVIEKTERLNQLVGPEYELVPCDLQKPDELREILKRVARNDVPTVLLAEMVFVYLEERTTTAILELTLNDVLKRDMCVLLIAYDAIRPNDRFGEVMVNSLASSGVPLRGIKELPTPEAHAERCKRVGLKSVMATSMRQLYLSVPQETQEWLKKLEMVDDWDEWCIMHDHYCFVLATNKAEALPTIF | not soluble
MAHHHHHHMSGGDIWVRRAPIGHPREMTVSTSVNNGPGPQGRHLFAELPINAGGGEVVLGECGTSGPSRSCNAMFSFKPPRHEPLWQPTRLTSPYCVLSANGVQDDFYTSCLSWGKGNIALALRDEVLLFQPSRPLVRLAVLNVQERPRSIISRVTSVAVSRFSDSSCFMGELDGSVGVYASRGDGRLSQTSVFSKPPPPLENTPLAGEAAMTATASVRCLATTDVHPWLVAAGTAAQGLFIFDSRCEKPSAQMVECDTFIALDSKRARKPLSPEDCLSLLSSAEGICGVSWNASGSLVATGGSGGVVNIWSLSQTRAPVQQIKLPNAHTTVKAIAFNPTLPYELAVGGGTNDGMLRLYDVSSSVSYLAWCVSTGCQVTQALYSPDGAFIISAQGLRHDKFTADGRAHSTALRMPNSNGAGVDVHRDSMDALERLTEEFERGMTRNGRTQEELQEPAPSHSGTAMNWAGDTPRTDDSPAFSLVMWRRGTQHRHSVPLGFSNTKPRDRPRSQYIQETERTPLPLFSMYMMTGHRSRPLHLASPFSSTADRGSVASFAGGVDNTIRFWKCFCPRSEAVNWEHRTRASMRAAVTEEDVEGMMAMPLR | not soluble
MGSDKIHHHHHHMRMERVVERVAVTGAEAVANAMRQIEPDVVAAYPITPQTPIVEYFARFVADGVVRTEMIPVESEHSAMSAVVGAAAAGARAMTATSANGLALMHEIVYIAASYRLPIVMPVVNRALSGPINIHCDHSDAMAERDSGWIQLFAETNQEAYDFTILAVRLAEHEDVRLPVMVNLDGFILSHGVEPVEFYPDELVKKFVGELKPMYPLLDTEHPVTWGPLDLYDYYFEHKRQQIEAMENVKKVFPEIAKEFEETFGRKYWFVEPYRMEDAEHVMVALGSTNSTIKYVVDELREEGYKVGSLKIWMFRPFPKEQLQELLNGRKSVVVLDRAVSFGAEAPLYEAVKSALYEVAARPMLGSYVYGLGGRDIKPEHIRKAFEDAINGNLIADEQRYLGLRE | not soluble
QDKPVFVYRLIARGTVEEKIQHLQQEKAALADGLFSEGNGDGWKLDEADIDAL | soluble
MLTEDDIKEIRENREMIEQGRREPVTLYIKGVSEKDPITGEEIQGEPRKENVQLVWKKFTSVEKTKFADLDVKKGEALVTFPLNVDLENIEKIERKGVFYVIELIDERGLGGVNRREVIVKRVI | not soluble
MSLAGHQPILTVSEVTRHLKRTIEDDPLLQDVWMRGEISNFKHHSRGHMYFTLKDEHAKMSAVMFAGNNRFLNFKPENGMKVIVRGEVNVYEPFGQYQLYALEMQPDGIGNLYLAYEQLKERLEQEGLFKEENKKPLPPVARQIAIVTSPTGAAIRDIASTIKRRFPVAQLTLLPVLVQGEEAPHSIAKAIRQANEVGGFDLLIVGRGGGSIEELWAFNEELVARAIYQSVIPIISAVGHETDYTIADFVADVRAATPTGAAELAVPDLKELISRVNQYTERLKRAQHELLKRQKEHLQRLQKSYAFRYPAQLVKQKELELDQQLERLTKHQRRMVSDAKDRLSQLEYRLKRIHPEGRLRQAEQARVKLEVLLKKEFQQMMERKEQQFQQAISSLNLLSPLRVMERGYALPYKAKTQELIKSVKQVRMNDRLHLRVTDGQLICDVKEIESESGGEGYDQKEGHHHHHH | not soluble
MPLNERQLDAFADEHAGQIPFDASPRHLAGPGDARHVTHGLAAAGWATISDPLSAEIVMASPDHRYRLQYDPQSATSAWWRLRATSADNEHGWYAEFGELVPAEVLSSLTDALIAPASPQSDPWQPVTSAGWRPDEAGAAHSPDAMCHIERRPTSEFHERPSWHIEVRDAHDTQYPGPRIWHAYLDEHAPDHLVGAFLSALTDQSPLQRGMFDRTAHYSAVKEPSPLRPQQVVDAHTSRVKVLRAQARAMRRQQTAPAKPPAPTTAVQPAARRLEHHHHHH | not soluble
MGQNIELHESLIRLIPYGEVPLPTVEQVQEHIYSYLNYLSESAIEQDVLFRVLLSTEERETLARAALGLTLEEISDFLRLTVKERLSSNGITIDATVTPMVVEYKTRLLSQMGIELGKPALYSFGGLDLLREWLNRRRKLFTQEARNLQLPQPKGILLEHHHHHH | not soluble
SNAMDIVSVALQRYSTKAFDPSKKLTAEEADKIKTLLQYSPSSTNSQPWHFIVASTEEGKARVAKSAAGNYTFNERKMLDASHVVVFCAKTAMDDAWLERVVDQEDADGRFATPEAKAANDKGRRFFADMHRVSLKDDHQWMAKQVYLNVGNFLLGVAAMGLDAVPIEGFDAEVLDAEFGLKEKGYTSLVVVPVGHHSVEDFNAGLPKSRLPLETTLTEV | soluble
TVAVSQIVEHPALDATRQGLLDGLKAKGYEEGKNLEFDYKTAQGNPAIAVQIARQYVGESPDVLVGIATPSAQALVSATRTIPVVFTAVTDPVGAKLVKSMKQPGKNVTGLSDLSPVAQHVELIQEILPQVKSIGVVFNPGEANAVTLVNLLKESAEAKGIKVVEATALKSADVQSATQAIAAKSDILYAPTDNTVASAIEGMIVAANQAKKPVFGGATSYVEKGAIAGLGFDYYQVGVQTADYVAAILDGQEPGKLDVKVATGSDLVINESAASKLGIQLPSSVVQRATSMQ | not soluble
MRIIETIEEMKKFSEEMREKKKTIGFVPTMGYLHEGHLSLVRRARAENDVVVVSIFVNPTQFGPNEDYERYPRDFERDRKLLEKENVDCIFHPSVEEMYPPDFSTYVEETKLSKHLCGRSRPGHFRGVCTVVTKLFNIVKPHRAYFGQKDAQQFRVLRRMVRDLNMDVEMIECPIVREPDGLAMSSRNVYLSPEERQQALSLYQSLKIAENLYLNGERDAEKIKEEMIKHLSRFDKVKIDYVEIVDEETLEPVEKIDRKVIVAVAAWVGNARLIDNTILG | soluble
GHMNVAKREFIRGMMAHYRASLPPPEHSVVIHELQKRVLDIGMLAVNKAHVELFGSHVSGFCTPHSDADISLTYRNFSPWLQGMERVDEQNNKRMTRFGKEASAMGMEDVRYIRARIPVVQFTDGVTGIHCDVSIGNIGGVENSKILCAIRQVFPDFYGAYIHLVKAWGKAREVIAPERSTFNSFTVTTMALMVLQELGLLPVFSKPTGEFGELTVADAEMLLQEFKLPPIYDSLHDDDEKLGEAVFFCLQRFAEYYAKYDFSAGTVSLIHPRRHRTVYERVVRRHLELLGSRKRLEWEKHIAEHKEDGPLDENDFSASMQNETTQRPSNSPYVVEDFVNYVNCGRRVQASRVRHIQQEFNRLREMLIDKESELKFDEVFRESDTVP | soluble
EAIGASVIPMSAGNTEKQIMIMQDYKTTALVCTPSYAITIADRMEKMGVDPKSLSLKVGLFGAEPWSEAMRKEIENRLFVSATDNYGLSEIIGPGVAGDCEYKCGMHIS | not soluble
MKPTERRILLGRIVGAFGVKGELKLESWTEPRSAIFRYQPWIVRTPSGQESVLSGVRGRDQGKNLIAVFPDITDRDTVEAMHGTEIYVARSALPPPKPDEYYWVDLEGLQVETVEGVKLGTVSHLFSTGSNDVVVVRGDRERMIPFVLPEYVKSVDFEANLIVVDWDPDFLEHHHHHH | soluble
MGSDKIHHHHHHMKILPVISTKGGEGKSTQAANLAGFFADAGLKTLLIDGDYSQPTASSIYALEHEAPFGLFELLMQTTDLNQPESIISRTAIPNLDLIISNDPDDRLPTAMLHAPDGRMRLKNILQHQSFQSYDVIMIDSKGAAGVMVELVVLAATENVVGVIKPILPDVREFMRGTVRLMSRLLALQAYGIQIPDIKILANCVENTSLDRKTLEELGNIVSEKKYLQSESINISILETKIDQLEVYKRGHAFGQPVHRLEYVTDRKSAAAAVTMHSLACELFPHWKDKFDSVLRNQTGAGEVASV | not soluble
MSYVTTKDGVQIFYKDWGPRDAPVIHFHHGWPLSADDWDAQLLFFLAHGYRVVAHDRRGHGRSSQVWDGHDMDHYADDVAAVVAHLGIQGAVHVGHSTGGGEVVRYMARHPEDKVAKAVLIAAVPPLMVQTPGNPGGLPKSVFDGFQAQVASNRAQFYRDVPAGPFYGYNRPGVEASEGIIGNWWRQGMIGSAKAHYDGIVAFSQTDFTEDLKGIQQPVLVMHGDDDQIVPYENSGVLSAKLLPNGALKTYKGYPHGMPTTHADVINADLLAFIRS | soluble
MAHHHHHHMDATPHMHAKTIFMTHWDGLEKDSDARIIVVGATNRRFTIDDAIRRRLPLQLEVPPPDAKAREKILSILLAHDLEYNPKKDGLIRYVALKTAEYTGSDLSELCKAAALMPLREMESMKAGGASSAAPETVPPLTQQHFDKAMERVKASK | soluble
